The test concerns the target T1, human HER2 receptor (human, UniProt P04626 23-1255).
T1 construct: whole, on cells; Endogenous HER2 on human cancer cell lines; also called Human Epidermal Growth Factor Receptor 2; Neu
The experiment in a line: flow cytometry, biotinylated antibody titrated on SK-BR-3 cells, PE-streptavidin, apparent affinity. The text has this: After a washing step, bound antibodies were detected using PE-labeled streptavidin and analyzed by FACS. The inverse of the fluorescence was plotted as a function of the inverse of antibody concentration.

B1: HER2.C7b sdAb (VHH, not shown: small tags and cut ends)
VHH: QVQLVQSGGGLVQAGGSLRLSCAASGRTFSSYAMAWFRQAPGKEREFVAAISWSGANIYVADSVKGRFTISRDNAKDTVYLQMNSLKPEDTAVYYCAVKLGFAPVEERQYDYWGQGTQVTVSS
modifications: biotinylated in vitro (Ez-link micro NHS-PEO4-biotinylation kit) for the affinity determination; sites not stated
notes: also called sdAb HER2.C7b; anti HER2 sdAb HER2.C7b
Consider B1, for which the Kd was found to be 51.6 nM.

B2: HER2.C7b-Fc (Fc fusion)
chain: B1 VHH
modifications: biotinylated in vitro for the affinity determination; sites not stated
notes: Bivalent for HER2: two HER2.C7b sdAb fused to the constant part of human IgG1; also called Sdab HER2.C7b-Fc; aHER2.C7b-Fc; not shown: hinge, CH1 and CH2 domains of a human IgG1 (so in the source)
B2: the Kd is 2.9 nM.
